Consider two molecules from publication PMC5656576.

For series [1], the target named is NP in preformed NP-UAP56 complex (Influenza A virus, UniProt P03466 1-498). As to the kind of experiment: EMSA. To be noted: protein: recombinant; tags: C-terminal His tag (encoded in primer); chain copies: 6; label: 32P; single strand; partly complementary ends.
In series [2] the target is NP (nucleoprotein), His-tagged (Influenza A virus, UniProt P03466 1-498). As to the kind of experiment: EMSA. To be noted: protein: recombinant; tags: C-terminal His tag (encoded in primer); label: 32P; single strand; partly complementary ends. In general terms: In EMSA bound probe runs differently from free probe, usually more slowly.
Sequence of NP (nucleoprotein), His-tagged (P03466 whole entry): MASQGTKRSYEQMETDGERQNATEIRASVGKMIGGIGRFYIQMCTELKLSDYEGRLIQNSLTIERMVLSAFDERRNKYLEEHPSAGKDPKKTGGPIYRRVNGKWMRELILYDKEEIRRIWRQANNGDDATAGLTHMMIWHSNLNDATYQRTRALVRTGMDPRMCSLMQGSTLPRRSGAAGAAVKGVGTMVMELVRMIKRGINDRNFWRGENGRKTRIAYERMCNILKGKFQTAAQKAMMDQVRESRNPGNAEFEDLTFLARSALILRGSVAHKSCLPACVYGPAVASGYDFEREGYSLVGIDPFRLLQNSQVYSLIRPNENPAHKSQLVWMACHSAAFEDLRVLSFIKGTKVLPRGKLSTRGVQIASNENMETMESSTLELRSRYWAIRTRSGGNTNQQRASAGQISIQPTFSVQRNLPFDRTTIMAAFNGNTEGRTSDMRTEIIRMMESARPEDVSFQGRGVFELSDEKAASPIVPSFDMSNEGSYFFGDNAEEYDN
Series [3] concerns the target T1, UAP56 (UniProt Q13838 1-428). In words: EMSA; UAP56 alone, 0.8-7.2 pmol. To be noted: protein: recombinant; tags: GST tag removed with PreScission protease; chain copies: 2; label: 32P; single strand; partly complementary ends.
Series [4] addresses T1, UAP56. As to the kind of experiment: EMSA. To be noted: protein: recombinant; tags: GST tag removed with PreScission protease; chain copies: 2; label: 32P; single strand; partly complementary ends.

Sequence of NP in preformed NP-UAP56 complex (P03466 whole entry, one chain of several): as the sequence (P03466 whole entry) above
T1 sequence (Q13838 whole entry): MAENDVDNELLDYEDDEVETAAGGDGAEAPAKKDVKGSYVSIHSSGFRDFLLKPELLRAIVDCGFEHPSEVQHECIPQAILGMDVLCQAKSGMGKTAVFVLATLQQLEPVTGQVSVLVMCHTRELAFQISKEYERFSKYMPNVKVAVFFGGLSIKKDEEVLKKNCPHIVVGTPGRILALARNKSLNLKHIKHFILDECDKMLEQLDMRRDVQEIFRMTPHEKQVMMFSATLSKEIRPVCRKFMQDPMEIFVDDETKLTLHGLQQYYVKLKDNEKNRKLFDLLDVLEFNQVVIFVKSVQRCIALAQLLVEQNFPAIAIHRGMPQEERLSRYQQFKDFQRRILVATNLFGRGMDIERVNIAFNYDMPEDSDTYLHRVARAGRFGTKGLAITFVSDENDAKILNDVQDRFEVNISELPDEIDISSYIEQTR

B1: 165 nt model vRNA (ssRNA)
RNA: AGUAGAAACAAGGUCGUUUUUAAACUAUUCGACACUAAUUGAUGGCCAUCCGAAUUUAUGGUCCACGGUGGUUUUUGUGAGUAUCUCGCGGGUGCGAGACUGCGACAUUAGAUUUCUUAGUUCUUUUAUUCUUUCCAUAUUGAAUAUAAUUGACCUGCUUUCGCU
With B1, the binding result in series [1] is on record as “binds”; in series [2], “binds”; in series [3], “no binding”.

B2: 53 nt model vRNA (ssRNA)
RNA: AGUAGAAACAAGGGUGUUUUUUCAUAUCAUUUAAACUUCACCCUGCUUUUGCU
For B2, the binding result in series [4] was “no binding”; in series [1], “binds”; in series [2], “binds”.
